The values below come from PMC11368889 (2024).

This assay addresses Histone H3 (H3K9me3) (Homo sapiens, UniProt P68431). The assay can be described thus: fluorescence microscopy titration in fixed HEK293 cells (Hill1 fit).

B1: MPP8-Green (MPP8-mNeonGreen-NLS-MPP8) 55-117 (protein)
chain: GEDVFEVEKILDMKTEGGKVLYKVRWKGYTSDDDTWEPEIHLEDCKEVLLEFRKKIAENKAKA
In general, Kd refers to the equilibrium constant for the complex coming apart. Lower therefore signals tighter binding. In turn, B1 returned a Kd of 490 nM.
